From US20180051253 come the findings set out here.

The data set concerns the target T1, Nuclear Respiratory Factor 1 (NRF1), Q16656.
T1 chain: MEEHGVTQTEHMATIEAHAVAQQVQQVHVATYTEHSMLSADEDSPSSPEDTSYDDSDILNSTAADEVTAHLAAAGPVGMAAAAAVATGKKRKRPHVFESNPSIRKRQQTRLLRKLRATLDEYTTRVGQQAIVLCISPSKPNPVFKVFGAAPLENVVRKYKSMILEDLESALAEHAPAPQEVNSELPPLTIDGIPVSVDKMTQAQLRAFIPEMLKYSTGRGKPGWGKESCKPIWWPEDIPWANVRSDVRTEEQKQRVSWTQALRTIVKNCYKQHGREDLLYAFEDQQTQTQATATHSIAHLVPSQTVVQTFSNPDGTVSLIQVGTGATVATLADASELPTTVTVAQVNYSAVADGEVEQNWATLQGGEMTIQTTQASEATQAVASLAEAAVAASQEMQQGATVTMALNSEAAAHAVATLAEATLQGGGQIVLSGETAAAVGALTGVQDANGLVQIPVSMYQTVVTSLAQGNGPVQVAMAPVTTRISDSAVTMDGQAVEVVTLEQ

B1: endogenous SIRT7 (protein)
chain: MAAGGLSRSERKAAERVRRLREEQQRERLRQVSRILRKAAAERSAEEGRLLAESADLVTELQGRSRRREGLKRRQEEVCDDPEELRGKVRELASAVRNAKYLVVYTGAGISTAASIPDYRGPNGVWTLLQKGRSVSAADLSEAEPTLTHMSITRLHEQKLVQHVVSQNCDGLHLRSGLPRTAISELHGNMYIEVCTSCVPNREYVRVFDVTERTALHRHQTGRTCHKCGTQLRDTIVHFGERGTLGQPLNWEAATEAASRADTILCLGSSLKVLKKYPRLWCMTKPPSRRPKLYIVNLQWTPKDDWAALKLHGKCDDVMRLLMAELGLEIPAYSRWQDPIFSLATPLRAGEEGSHSRKSLCRSREEAPPGDRGAPLSSAPILGGWFGRGCTKRTKRKKVT
Take B1: the “SIRT7 occupancy at gene promoters (ChIP-qPCR) after NRF1 siRNA” value was “NRF1 knockdown (KD) using siRNA reduced SIRT7 occupancy at the promoters of mRPs and mTFs, but not RPS20”.
